T1: EVA-P974, A0A023
T1 chain: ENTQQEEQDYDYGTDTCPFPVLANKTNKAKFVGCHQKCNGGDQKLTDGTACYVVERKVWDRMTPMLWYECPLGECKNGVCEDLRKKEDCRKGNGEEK

T2: EVA-4, P0C8E9
T2 chain: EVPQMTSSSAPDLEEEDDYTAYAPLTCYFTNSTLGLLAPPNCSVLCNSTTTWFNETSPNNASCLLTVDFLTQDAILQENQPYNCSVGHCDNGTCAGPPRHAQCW


Assays:
Assay in all cases: SPR
[1] = molecular target: CHI-1P
[2] = molecular target: CHI-1R (not stated | Rhipicephallus pulchellus (zebra tick or yellow back tick))
[3] = molecular target: EVA-RPU02 (Rhipicephallus pulchellus (zebra tick or yellow back tick))
[4] = molecular target: T1, EVA-P974, A0A023; settings: remark: other sources report otherwise
[5] = molecular target: T2, EVA-4, P0C8E9; settings: remark: other sources report otherwise
[6] = molecular target: CHI-P1
[7] = molecular target: CHI-R1 (Rhipicephallus pulchellus (zebra tick or yellow back tick) | not stated)
[8] = molecular target: CHI-PR (not stated | Rhipicephallus pulchellus (zebra tick or yellow back tick))

| Binder | Kd [1] [nM] | Kd [2] [nM] | Kd [3] [nM] | koff [3] [s⁻¹] | kon [3] [M⁻¹ s⁻¹] | further results |
| --- | --- | --- | --- | --- | --- | --- |
| CCL15 (ligand) QFTNDAETELMMSKLPLENPVVLNSFHFAADCCTSYISQSIPCSLMKSYFETSSECSKPGVIFLTKKGRQVCAKPSGPGVQDCMKKLKPYSI | – | – | 503 | 0.069 | 140000 | – |
| CCL15, Q16663 22-113 (ligand, here or on the partner: biotin on the Avi-tag (Bir-A ligase)) QFTNDAETELMMSKLPLENPVVLNSFHFAADCCTSYISQSIPCSLMKSYFETSSECSKPGVIFLTKKGRQVCAKPSGPGVQDCMKKLKPYSI | – | – | – | – | – | Kd [4]: 299 nM |
| CCL4, P13236 24-92 (ligand, here or on the partner: biotin on the Avi-tag (Bir-A ligase)) APMGSDPPTACCFSYTARKLPRNFVVDYYETSSLCSQPAVVFQTKRSKQVCADPSESWVQEYVYDLELN | – | – | – | – | – | Kd [5]: 158 nM |
| CCL18 (ligand) AQVGTNKELCCLVYTSWQIPQKFIVDYSETSPQCPKPGVILLTKRGRQICADPNKKWVQKYISDLKLNA | 206 | > 500 | 651 | 0.35 | 490000 | Kd [8]: 315 nM |

Second part, led by results:

| Kd [1] [nM] | Kd [2] [nM] | Kd [3] [nM] | koff [3] [s⁻¹] | kon [3] [M⁻¹ s⁻¹] | Binder | further results |
| --- | --- | --- | --- | --- | --- | --- |
| 25 | > 500 | – | – | – | CCL22 (ligand) GPYGANMEDSVCCRDYVRYRLPLRVVKHFYWTSDSCPRPGVVLLTFRDKEICADPRVPWVKMILNKLSQ | – |
| 182 | > 500 | – | – | – | CCL16 (ligand) QPKVPEWVNTPSTCCLKYYEKVLPRRLVVGYRKALNCHLPAIIFVTKRNREVCTNPNDDWVQEYIKDPNLPLLPTRNLSTVKIITAKNGQPQLLNSQ | – |
| 149 | 60 | 32.4 | 0.024 | 580000 | CCL14 (ligand) TKTESSSRGPYHPSECCFTYTTYKIPRQRIMDYYETNSQCSKPGIVFITKRGHSVCTNPSDKWVQDYIKDMKEN | Kd [6]: 79 nM; Kd [7]: 134 nM |
| 191 | – | – | – | – | CCL1 (ligand) KSMQVPFSRCCFSFAEQEIPLRAILCYRNTSSICSNEGLIFKLKRGKEACALDTVGWVQRHRKMLRHCPSKRK | – |
